Experimental data from patent publication US20240034802A1.

Key:
Assay in all cases: flow cytometry, protein L-biotin then streptavidin-PE on CAR T cells
[1] = molecular target: tandem CD20/CD19 chimeric antigen receptor, Construct CAR 2019 (Leader-CD20 VH (GGGGS)3-CD20 VL-(GGGGS)5-CD19 VL-Whitlow linker-CD19 VH CD8 hinge+TM-4-1BB-CD3z)
[2] = molecular target: CARs on the transduced T cell surface
[3] = molecular target: tandem CD19/CD20 chimeric antigen receptor, Construct CAR 1920 (Leader-CD19 VL-Whitlow linker CD19 VH (GGGGS)-5 CD20 VH (GGGGS)-3 CD20 VL CD8 hinge+TM-4-1BB-CD3z)
tandem CD19/CD20 chimeric antigen receptor, Construct CAR 1920 (Leader-CD19 VL-Whitlow linker CD19 VH (GGGGS)-5 CD20 VH (GGGGS)-3 CD20 VL CD8 hinge+TM-4-1BB-CD3z), sequence (chain, as listed by the source mutant): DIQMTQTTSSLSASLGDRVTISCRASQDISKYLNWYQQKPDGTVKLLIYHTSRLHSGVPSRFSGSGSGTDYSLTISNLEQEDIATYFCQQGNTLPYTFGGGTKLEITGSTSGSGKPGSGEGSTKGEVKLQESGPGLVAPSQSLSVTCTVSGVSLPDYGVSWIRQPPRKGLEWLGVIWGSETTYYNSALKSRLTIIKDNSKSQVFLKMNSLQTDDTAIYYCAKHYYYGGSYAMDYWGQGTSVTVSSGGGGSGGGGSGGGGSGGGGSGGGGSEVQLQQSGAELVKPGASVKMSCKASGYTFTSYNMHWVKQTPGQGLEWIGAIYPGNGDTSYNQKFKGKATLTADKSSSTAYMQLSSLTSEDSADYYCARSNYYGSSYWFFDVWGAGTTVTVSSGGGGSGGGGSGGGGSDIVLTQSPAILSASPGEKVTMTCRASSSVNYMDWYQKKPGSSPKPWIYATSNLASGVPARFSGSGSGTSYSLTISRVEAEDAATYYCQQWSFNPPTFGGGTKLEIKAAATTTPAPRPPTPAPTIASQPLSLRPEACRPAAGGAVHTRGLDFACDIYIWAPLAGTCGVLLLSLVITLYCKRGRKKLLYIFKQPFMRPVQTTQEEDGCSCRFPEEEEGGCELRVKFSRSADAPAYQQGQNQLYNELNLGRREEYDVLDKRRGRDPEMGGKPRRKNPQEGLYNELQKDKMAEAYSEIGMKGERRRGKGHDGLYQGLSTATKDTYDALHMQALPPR

tandem CD20/CD19 chimeric antigen receptor, Construct CAR 2019 (Leader-CD20 VH (GGGGS)3-CD20 VL-(GGGGS)5-CD19 VL-Whitlow linker-CD19 VH CD8 hinge+TM-4-1BB-CD3z), sequence (chain, as listed by the source mutant): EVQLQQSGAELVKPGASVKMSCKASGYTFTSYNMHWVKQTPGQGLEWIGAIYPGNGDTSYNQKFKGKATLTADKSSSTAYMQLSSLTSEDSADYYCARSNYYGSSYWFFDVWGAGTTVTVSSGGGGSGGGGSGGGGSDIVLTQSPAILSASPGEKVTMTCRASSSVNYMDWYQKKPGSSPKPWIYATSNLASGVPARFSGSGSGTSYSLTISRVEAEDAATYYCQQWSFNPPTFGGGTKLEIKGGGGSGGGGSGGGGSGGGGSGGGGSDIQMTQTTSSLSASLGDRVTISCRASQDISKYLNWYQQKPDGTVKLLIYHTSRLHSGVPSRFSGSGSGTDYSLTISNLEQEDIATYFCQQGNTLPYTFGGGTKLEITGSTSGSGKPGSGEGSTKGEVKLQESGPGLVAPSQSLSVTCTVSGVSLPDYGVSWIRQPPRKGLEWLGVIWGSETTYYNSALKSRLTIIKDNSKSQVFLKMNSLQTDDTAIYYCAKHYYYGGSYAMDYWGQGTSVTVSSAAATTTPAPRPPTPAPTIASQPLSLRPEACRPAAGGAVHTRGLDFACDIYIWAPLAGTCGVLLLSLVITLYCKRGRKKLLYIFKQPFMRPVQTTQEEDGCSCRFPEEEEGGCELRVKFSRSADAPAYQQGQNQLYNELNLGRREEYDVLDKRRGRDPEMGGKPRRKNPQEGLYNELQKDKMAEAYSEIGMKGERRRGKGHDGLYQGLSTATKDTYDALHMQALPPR

- percent of transduced T cells stained [1]: 89%
- percent of transduced T cells stained (CAR surface expression) [2]: 61 to 93%
- percent of transduced T cells stained [3]: 85%
Substance: protein L-biotin conjugate (GenScript)
